# Patent US20190275101
# T1: Fluorogenic peptide Glu(EDANS)-GDYELQGPEDLA-Lys(Dabcyl), p48/p41 cleavage site of the HOV polyprotein
# T1 chain: EGDYELQGPEDLAK
# Biological target: T1, Fluorogenic peptide …
Protein,"FRET proteolytic activity at pH 8, 6.5 and 5","kcat/Km, FRET assay at pH 8",FRET proteolytic activity at pH 6.5
"Houston virus protease (HOV Pro), GII.4 norovirus protease, wild-type (protein) APPSIWSRIVNFGSGWGFWVSPSLFITSTHVIPQGAKEFFGVPIKQIQVHKSGEFCRLRFPKPIRTDVTGMILEEGAPEGTVVTLLIKRSTGELMPLAARMGTHATMKIQGRTVGGQMGMLLTGSNAKSMDLGTTPGDCGCPYIYKRGNDYVVIGVHTAAARGGNTVICATQGSEGEATLE","while HOV Pro was active at pH 8, it showed no activity at pH 6.5 and pH 5",kcat/Km=843.7 M^-1s^-1,–
HOV Pro R112A mutant (protein) APPSIWSRIVNFGSGWGFWVSPSLFITSTHVIPQGAKEFFGVPIKQIQVHKSGEFCRLRFPKPIRTDVTGMILEEGAPEGTVVTLLIKRSTGELMPLAARMGTHATMKIQGATVGGQMGMLLTGSNAKSMDLGTTPGDCGCPYIYKRGNDYVVIGVHTAAARGGNTVICATQGSEGEATLE,–,kcat/Km=1215 M^-1s^-1,"Unlike the wild-type HOV Pro, R112A mutant was active at pH 6.5"
